Blank lines part the entries; values can stand above or below the binder they belong to.
Experiments:
[1] = target: T1, Biotinylated DB21 F48A-H101A (biotin on the Avi-tag (BirA-catalyzed)); experiment: BLI; 200 uM CBD
Biotinylated DB21 F48A [2] = target: T2, Biotinylated DB21 F48A (biotin on the Avi-tag (BirA-catalyzed)); experiment: BLI; 200 uM CBD
Biotinylated DB21 H101A = Biotinylated DB21 H101A (biotin on the Avi-tag (BirA-catalyzed)); experiment: BLI; 200 uM CBD
[3] = target: T3, Biotin-DB21 (biotinylated Avi-DB21) (biotin on the Avi-tag (BirA-catalyzed)); experiment: no CBD; AlphaScreen competition with His-CA14
[4] = target: T1, Biotinylated DB21 F48A-H101A; experiment: 200 uM CBD; AlphaScreen competition
Biotinylated DB21 F48A [5] = target: T2, Biotinylated DB21 F48A; experiment: 200 uM CBD; AlphaScreen competition
[6] = target: T1, Biotinylated DB21 F48A-H101A; experiment: no CBD; AlphaScreen competition
Biotinylated DB21 F48A [7] = target: T2, Biotinylated DB21 F48A; experiment: no CBD; AlphaScreen competition
[8] = target: T3, Biotin-DB21 (biotinylated Avi-DB21); experiment: 200 uM CBD; AlphaScreen competition with His-CA14
His-DDB1–CRBN complex = His-DDB1–CRBN complex (human, UniProt Q96SW2 41-442; Q16531 1-1140); experiment: 200 uM pomalidomide; AlphaScreen competition
GST-TIR1-ASK1 complex = target: T4, GST-TIR1-ASK1 complex (Arabidopsis thaliana, UniProt Q570C0 1-594; Q39255 1-160); experiment: 200 uM auxin; AlphaScreen competition with biotin-Aux/IAA7
T4 chain 1: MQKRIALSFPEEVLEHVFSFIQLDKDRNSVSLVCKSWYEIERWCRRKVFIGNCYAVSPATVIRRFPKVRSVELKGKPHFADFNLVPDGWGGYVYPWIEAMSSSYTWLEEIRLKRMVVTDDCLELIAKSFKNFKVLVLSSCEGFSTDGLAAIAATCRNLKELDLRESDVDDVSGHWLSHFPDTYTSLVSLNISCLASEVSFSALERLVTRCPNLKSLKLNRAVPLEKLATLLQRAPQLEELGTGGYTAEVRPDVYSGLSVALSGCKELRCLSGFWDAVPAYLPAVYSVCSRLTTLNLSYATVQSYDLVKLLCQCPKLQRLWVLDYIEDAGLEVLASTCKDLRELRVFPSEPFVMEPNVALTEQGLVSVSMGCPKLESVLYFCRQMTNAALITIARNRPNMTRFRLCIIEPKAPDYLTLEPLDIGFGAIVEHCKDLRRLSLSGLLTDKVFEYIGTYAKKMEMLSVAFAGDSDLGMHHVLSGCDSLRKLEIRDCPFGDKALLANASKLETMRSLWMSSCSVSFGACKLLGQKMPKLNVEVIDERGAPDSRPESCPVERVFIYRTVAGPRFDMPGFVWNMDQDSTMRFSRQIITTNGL
T4 chain 2: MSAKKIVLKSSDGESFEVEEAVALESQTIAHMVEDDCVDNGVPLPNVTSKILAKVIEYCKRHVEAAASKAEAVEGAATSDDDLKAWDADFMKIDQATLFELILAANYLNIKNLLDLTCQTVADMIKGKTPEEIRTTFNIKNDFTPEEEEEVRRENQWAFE

IAA7 degron = target: T5, IAA7 degron (Arabidopsis thaliana, UniProt Q38825, auxin); experiment: BLI
T5 chain: QVVGWPPVRNYRK

His-CA14 D34A = experiment: 200 uM CBD; AlphaScreen competition with Biotin-DB21
His-CA14 = experiment: as above

IC50 (His-DDB1–CRBN complex): 67 nM
B2: Label-free IKZF1 ZF2-3 (141-196) (domain or fragment)
chain: GERPFQCNQCGASFTQKGNLLRHIKLHSGEKPFKCHLCNYACRRRDALTGHLRTHS

Kd (IAA7 degron): 30.5 nM
B4: TIR1 (protein)
chain: T4 chain 1

Second part, the binder before the results:

B1: CA14 anchor binder nanobody, tag-free (VHH)
VHH: EVQLQASGGGFVQPGGSLRLSCAASGSTSRQYDMGWFRQAPGKEREFVSAISSNQDQPPYYADSVKGRFTISRDNSKNTVYLQMNSLRAEDTATYYCAFKQHHANGAYWGQGTQVTVSS
Kd [1]: 1900 nM
Kd (Biotinylated DB21 F48A [2]): 1500 nM
Kd (Biotinylated DB21 H101A): 215 nM
IC50 [3]: 17000 nM
IC50 [4]: 4700 nM
IC50 (Biotinylated DB21 F48A [5]): 1700 nM
IC50 [6]: 23000 nM
IC50 (Biotinylated DB21 F48A [7]): 18000 nM
IC50 [8]: 31 nM

B3: IAA7 degron peptide, non-labeled (peptide)
chain: QVVGWPPVRNYRK
modifications: synthetic peptide, unlabelled; limits not given, taken from the IAA7 degron peptide of the TIR1-ASK1 crystal structures (13-mer, PDB 2P1Q)
IC50 (GST-TIR1-ASK1 complex): 18.4 nM

B5: DB21 dimerization binder nanobody, tag-free (VHH)
VHH: EVQLQASGGGFVQPGGSLRLSCAASGTTYGQTNMGWFRQAPGKEREFVSAISGLQGRDLYYADSVKGRFTISRDNSKNTVYLQMNSLRAEDTATYYCAFHDFLRMWEYWGQGTQVTVSS
IC50 (His-CA14 D34A): 27000 nM
IC50 (His-CA14): 35 nM
